This is an account of results in publication PMC5101508 (Scientific Reports, 2016).

Experiment [1] has as its target monoclonal antibody F240 (IgG) (human (isolated from an HIV infected individual)). Kind of experiment: SPR.
Experiment [2] concerns the target gp41 583-618 peptide, oxidized form (Cys598-Cys604 disulfide) (HIV-1 (clade B, strain BaL)). Kind of experiment: ITC. In general terms: Isothermal titration calorimetry measures the heat released or taken up as one component is titrated into another.
The target in experiment [3] is HIV-1 BaL envelope glycoprotein (Env, gp120/gp41) on AT-2-inactivated virions (HIV-1 (clade B, strain BaL)). Briefly: fluorescence correlation spectroscopy (FCS); Alexa 647 labelled mAb (5 μg/ml) incubated with 10 μg/ml of free AT-2-inactivated HIV-1 BaL virions for 90 minutes at 37 °C; in solution.
The test system of experiment [4] is mAb F240. Kind of experiment: Surface Plasmon Resonance (SPR) of gp41 peptide on captured F240 IgG. The experiment is classed as binding. The note with it: reduced vs oxidized peptide.
Description: Sensorgrams were obtained at room temperature for mAb F240 immobilized on a Protein A chip with 0–200 nM concentrations of gp41 peptide passed over the chip. […] Standard deviations of ka, kd and KD for two experiments are shown.
The binding affinity and kinetics of F240 for gp41_583–618 peptide and gp41_583–618 peptide pretreated to reduce C^598-C^604 disulfide bond was assessed by Surface Plasmon Resonance on a Biacore T-100 (GE Healthcare) at 25 °C. The reduced gp41_583–618 was generated by treating the oxidized form of the same peptide with 0.05 M of TCEP. Protein A was first immobilized onto the second of the two flow cells on a CM5 chip to ~3000 response units (RU) and the first flow cell blocked with a standard amine coupling protocol (GE Healthcare). F240 IgG to be evaluated was then captured onto the second flow cell by flowing a 5–10 nM solution of mAb at 10 μl/min flow rate for 30 seconds. […] Varying concentrations (0–200 nM) of the oxidized and reduced forms of the peptide were then passed over both flow cells at a flow rate of 30 μl/min for 200 seconds and allowed to dissociate by passing buffer over both cells at the same flow rate for 800 seconds. The cells were regenerated with a 30 second injection of 0.1 M glycine pH 3.0 with a flow rate of 100 μl/min and the antibody reloaded onto the second flow cell for each peptide concentration. […]
The subject of experiment [5] is EGFP-CEM-NKr-CCR5-SNAP cells sensitized with AT-2–inactivated HIV-1 BaL. Briefly: RFADCC, virion bound assay. The conditions noted are these: curves normalized for plateau cytotoxicity values using C11 (Fig. 5D); two independent experiments in duplicate. The format is cell-based. From the text: (§1) EGFP-CEM-NKr-CCR5-SNAP cells sensitized with AT-2–inactivated HIV-1 BaL were (C) stained for antibody binding and (D) ADCC using the modified rapid fluorometric antibody-mediated cytotoxicity assay (RFADCC)[35]. Cluster A CD4i antibodies A32, N5-i5, C11 and Synagis were used as controls. The plot represents a mean of two independent experiments normalized to the average A32 values with error bars showing the range between experiments.
(§2) In brief, EGFP-CEM-NKr-CCR5-SNAP target cells were first stained with the SNAP-Surface Alexa Fluor 647 dye, washed twice and spinoculated with HIV-1 BaL AT-2 inactivated virus at 2000 RPM for 2 h at 12 °C. Subsequently, AT-2 BaLsensitized double-stained targets were washed twice with cold R10 medium and then subjected to testing for antibody binding (detected with PE-labeled mouse anti-human IgG secondary antibody, BD Bioscence cat. 555787) and RFADCC assay, following the previously described protocol. Samples were collected on a BD Fortessa Special Order instrument (BD Biosciences) and analyzed using FlowJo software (Tree Star, Ashland, OR). The HIV-1BaL AT-2 inactivated virus was generously provided by Dr. Jeff Lifson, NCI, Frederick. The ADCC data represent the typical results obtained in two independent experiments done in duplicate and the bars indicate the range of the values of cytotoxicity.

For experiment [6], the target named is mAb F240. Briefly: Isothermal Titration Calorimetry (ITC) of F240 with gp41 peptides. The format is binding. The conditions noted are these: 25 °C, 1X PBS pH 7.4, F240 111 μM in syringe, peptide 11 μM in cell, single-site model.
Description: Sensorgrams were obtained at room temperature for mAb F240 immobilized on a Protein A chip with 0–200 nM concentrations of gp41 peptide passed over the chip. […] Standard deviations of ka, kd and KD for two experiments are shown. […] The binding isotherms were fitted to a one-site binding model using Origin for ITC version 7.0383 (MicroCal). The fitting yields the stoichiometry (N), the binding constant (KD), and the enthalpy (ΔH) of the binding reaction.
The ITC experiments were performed using an ITC200 system (Micro-Cal) as previously described by Bradshaw et al.[61], at 25 °C in a 1X PBS buffer pH 7.4. F240 was dialyzed against this buffer overnight before the experiment. The peptides were dissolved in the final dialysis buffer. […] Titrations were performed at 25 °C with 17 injections of 2.42 μl aliquots, with 210–240 second intervals between injections. Heats of dilutions were measured and subtracted from each data set. Data were corrected for the heat of dilution and fitted using a nonlinear least-squares routine using a single-site binding model with Origin for ITC version 7.0383 (MicroCal).
The target in experiment [7] is T1, gp41 583-618 peptide, oxidized form (Cys598-Cys604 disulfide) (HIV-1 (clade B, strain BaL), disulfide bond between Cys598 and Cys604 (oxidized peptide)).
T1 peptide: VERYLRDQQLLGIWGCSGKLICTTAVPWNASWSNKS
Briefly: SPR.

Experiment [8] has as its target T1, gp41 583-618 peptide, oxidized form …. Kind of experiment: SPR. Background: SPR reads the build-up and loss of mass on a sensor chip optically.
Experiment [9] concerns the target T2, gp41 583-618 peptide, reduced form (pretreated with TCEP) (HIV-1 (clade B, strain BaL)).
T2 peptide: T1 peptide
Briefly: SPR; peptide pretreated with TCEP.

In experiment [10] the target is T2, gp41 583-618 peptide, reduced form …. Briefly: SPR; peptide pretreated with TCEP.
Experiment [11] has as its system EGFP-CEM-NKr-CCR5-SNAP cells sensitized with AT-2–inactivated HIV-1 BaL. Briefly: Antibody binding (staining) to virion-sensitized cells, virion bound assay. The note with it: Fig. 5C; PE-labeled anti-human IgG secondary antibody; mean of two independent experiments normalized to A32. The format is cell-based.
Description: as §1, §2

In experiment [12] the test system is EGFP-CEM-NKr-CCR5-SNAP cells infected with BaL infectious molecular clone. Briefly: Cell-surface staining of IMC BaL infected EGFP-CEM-NKr-CCR5-SNAP cells. The format is cell-based, HIV-1 BaL. The method, then: For BaL-infected cells two gates were delineated: p24+/CD4− and p24+low/CD4+; and one for Mock p24−/CD4+. The plot represents a mean of two independent experiments normalized to the average A32 values with error bars showing the range between experiments.
EGFP-CEM-NKr-CCR5-SNAP cells were spinoculated for 2 hr at 2000 RPM at 12 °C in 96-well U-bottom plate (5 × 10^5 cells/well) with 240 ng of IMC BaL virus (control cells were incubated without virus), as measured by HIV-1 p24 antigen capture ELISA. Afterward, the viral inoculum was diluted 1:2 in R10 medium containing G418 1.5 mg/ml, and cells and virus were placed into one well of a 12-well flat-bottom plate. The cells were then cultured adding fresh medium every 2 days. […] After a wash, cells were then fixed and permeabilized using the Cytofix/Cytoperm Kit (BD-PharMingen, San Diego, Calif.) for 20 min at 4 °C. Subsequently, permeabilized cells were washed once with the buffer provided by the manufacturer, resuspended and stained for 30 min at RT with 5 μl (PE)-conjugated mouse anti-p24 mAb (KC57-RD1; Beckman Coulter, Inc.). After two additional washes, HIV-1- or mock were fixed in PFA 2% analyzed with an LSRII Fortessa flow cytometer (BDBiosciences) and data analysis was performed with FlowJo software (Tree Star,Inc., San Carlos, Calif.). The plot represents a mean of two independent experiments normalized to the average A32 values with error bars showing the range between experiments.

Molecule “gp41 583-618 peptide, reduced form (pretreated with TCEP)” had a fold lower affinity than the oxidized peptide in [1] of 14 fold.

For orientation: Kd means the constant that tells how readily two partners part at equilibrium. For monoclonal antibody F240 (IgG), in experiment [2], the Ka was determined as 2.95e+07 M⁻¹ and the Kd is 34 nM. The same molecule yielded a percent of binding in experiment [3] of 40%.

Take “VERYLRDQQL[10] LGIWGCSGKL[20] ICTTAVPWNA[30] SWSNKS [reduced gp41_583–618, gp41_583–618 pretreated with TCEP to reduce the C598-C604 disulfide bond]”: in the experiment on mAb F240 [4], the “lower affinity as compared to its oxidized form” value is “approximately 14 fold”.

For “Synagis: Synagis (MedImmune), control mAb [reference compound]”, the “AUC (Area Under Curve), ADCC” value in experiment [5] was found to be 18.2 cytotoxicity/μg/ml.

With “VERYLRDQQL[10] LGIWGCSGKL[20] ICTTAVPWNA[30] SWSNKS (disulfide) [gp41_583–618]”, on mAb F240 [6], the “binding constant KB” value turned out to be 2.95e+07 M⁻¹. Moreover, on mAb F240 [6] (read-out: dissociation constant KD), the Kd amounted to 34 nM.

B1: monoclonal antibody F240 (IgG) (antibody, V domains shown)
VH: QVQLVQSGGGVVKPGASSRLSCAASGFTFTDYYMSWIRQAPGKGLEWVAYITKDGSEKKYADSLQHRFAVSRDNANNLVFLQLNTVEDDDTGVYYCARDDGYYDRSGYYGVFDLWGQGIRVTVSS
VL: EFLLTQSPDSLAVTLGETATITCRSSRNILHSLNNKNYLAWYQQRPGQAPKLLVIWASMRVSGVADRFSGSGSGTDFALTISSLQPEDAAVYYCQHYYTTHRTFGQGTRVEIR
modifications: Alexa Fluor 647 on primary amines (only in the FCS experiments and in the staining of IMC BaL-infected cells) | Alexa Fluor 647 on primary amines (only in the FCS experiments and in the staining of IMC BaL-infected cells)
A word on the koff: it is a measure of how fast the partners let go of each other. Regarding B1, the Kd in experiment [7] was found to be 4.4 nM; in [9], 60 nM. Further, the koff in experiment [8] came out at 0.00083 s⁻¹; in [10] it was 0.0028 s⁻¹.

B2: N5-i5: Cluster A CD4i antibody used as control (antibody, V domains shown)
VH: EVQLVESGGGLVQPGGSLRLSCAASGFTFSTYAMSWVRQAPGKGLEWVSSINNSGRNTFSADSVKGRFTISRDNSKNTLFLVMNSLRAEDTAVYYCAKDLRLGGGSDYWGQGTLVTVSS
VL: QSALTQPASVSGSPGQSITISCTGTSSDVGSYNFVSWYQQHPGKAPKLMIYEVSERPSGISNRFSGSKSGNTASLTISGLQAEDEADYYCSSYAGSTTFRVFGGGTKLTVR
In the case of B2, the “recognition (binding) of virion-sensitized cells, in words” value in [11] is “Lower than reported in ref. [35]”. Moreover, in experiment [5], the “AUC (Area Under Curve), ADCC” value came out at 374.8 cytotoxicity/μg/ml. In addition, the “binding to mock-infected cells” value in experiment [12] (mock p24−/CD4+ population) is “did not recognize”. In addition, in experiment [12] (p24+/CD4− population, 5 days post-infection), the “binding to productively infected cells” value is listed as “did not recognize”. Besides, the “binding to CD4-preserving cells with virus” value in experiment [12] (p24+low/CD4+ population, 5 days post-infection) is listed as “very effectively stained”.
